Residue numbers refer to the chain shown, from its start.

The target in the assay is T1, mgp130 ECD antigen (mouse, UniProt Q00560 23-617).
T1 construct: Antigen of biopanning and PE-ELISA; The immunogen was an ECD-human IgG1 hinge-Fc fusion; also called ECD of mouse gp130; ngp130 ECD antigen (so in the source)
T1 sequence: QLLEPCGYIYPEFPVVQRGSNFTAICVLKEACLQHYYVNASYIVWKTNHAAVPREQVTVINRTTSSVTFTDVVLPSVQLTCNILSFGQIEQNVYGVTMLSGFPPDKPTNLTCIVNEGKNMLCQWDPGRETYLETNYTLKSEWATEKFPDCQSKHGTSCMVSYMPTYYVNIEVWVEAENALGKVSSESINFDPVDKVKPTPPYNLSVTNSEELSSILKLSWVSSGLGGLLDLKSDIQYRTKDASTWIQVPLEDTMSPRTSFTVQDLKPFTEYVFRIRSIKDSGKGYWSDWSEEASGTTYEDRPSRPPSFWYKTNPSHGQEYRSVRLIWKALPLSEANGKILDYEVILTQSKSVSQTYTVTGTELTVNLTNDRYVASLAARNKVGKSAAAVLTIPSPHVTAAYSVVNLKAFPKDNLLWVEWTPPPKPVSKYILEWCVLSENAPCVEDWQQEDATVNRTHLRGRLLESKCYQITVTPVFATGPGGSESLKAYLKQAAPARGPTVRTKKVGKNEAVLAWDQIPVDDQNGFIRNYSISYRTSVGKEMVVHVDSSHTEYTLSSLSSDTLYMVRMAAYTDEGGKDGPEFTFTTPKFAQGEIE
Description: periplasmic extract ELISA (PE-ELISA) of phage clones. (ELISA stands for enzyme-linked immunosorbent assay.)

B1: mgp130_VHH38 (VHH)
VHH: QVQLQESGGGSVQAGGFLRLSCAFSGYTGCMGWFRQGPGQEREGVASINDGGSLTYADSVKGRFTISKDNAKKTLDLQMNTLKPEDTAMYYCAASLSYCLNPTLRVDGYNYWGQGTQVTVSS
notes: As periplasmic extract of the phage clone; also called anti-mouse gp130 VHH; not shown: HA/His tag of the pMECS phagemid
Take B1: the binding result is “binds”.

B2: mgp130_VHH30 (VHH)
VHH: QVQLQESGGGLVQPGGSLRLSCAASGFTFSSYAMSWVRQAPGKGLEWVSAINSGGGSTYYADSVKGRFTISRDNAKNTLYLQLNSLKTEDTAMYYCAKHVTGDYDPSLRYEYNYWSQGTQVTVSS
notes: as for B1
On to B2, for which the binding result was “binds”.

B3: mgp130_VHH28 (VHH)
VHH: B2 VHH with N77S, A97T
notes: as for B1
On to B3, for which the binding result was “binds”.

B4: mgp130_VHH17 (VHH)
VHH: B2 VHH with S30R, S31N, N113A
notes: as for B1
In the case of B4, the binding result is reported as “binds”.

B5: mgp130_VHH4 (VHH)
VHH: B2 VHH with G56A, S57G, A61T, Y110H, E111G, Y114V
notes: as for B1
As for B5, the binding result is reported as “binds”.

B6: mgp130_VHH20 (VHH)
VHH: B2 VHH with M34V, A50T, A97T, Y114V
notes: as for B1
Take B6: the binding result is given as “binds”.

B7: mgp130_VHH10 (VHH)
VHH: B2 VHH with A23T, S30R, S31N, Q82R, N84H
notes: as for B1
As to B7, the binding result is listed as “binds”.

B8: mgp130_VHH42 (VHH)
VHH: B2 VHH with E111G, Y114V
notes: as for B1
For the molecule B8, the binding result is on record as “binds”.

B9: mgp130_VHH34 (VHH)
VHH: B2 VHH with S30R, G66A, S116G
notes: as for B1
As for B9, the binding result is reported as “binds”.

B10: mgp130_VHH12 (VHH)
VHH: B2 VHH with Y95C, E111G, Y114C, S116G, Q117P
notes: as for B1
For the molecule B10, the binding result is reported as “binds”.

B11: mgp130_VHH46 (VHH)
VHH: B2 VHH with Y95C, V100I, Y114C, S116G
notes: as for B1
Consider B11, for which the binding result is reported as “binds”.

B12: mgp130_VHH16 (VHH)
VHH: B2 VHH with S30R, S31N, L83M, T88P
notes: as for B1
Consider B12, for which the binding result is given as “binds”.

B13: mgp130_VHH35 (VHH)
VHH: B2 VHH with V100I, S116G
notes: as for B1
On to B13, for which the binding result is recorded as “binds”.

B14: mgp130_VHH43 (VHH)
VHH: B2 VHH with S53L, G56D, S57T, A61T, N113G
notes: as for B1
For the molecule B14, the binding result is “binds”.

B15: mgp130_VHH11 (VHH)
VHH: B2 VHH with S30R, S31N, A97T
notes: as for B1
As for B15, the binding result was “binds”.

B16: mgp130_VHH18 (VHH)
VHH: B2 VHH with L11S, P14A, G66A, E111D, S116G
notes: as for B1
As to B16, the binding result is given as “binds”.

B17: mgp130_VHH29 (VHH)
VHH: B2 VHH with G56A, Y95C, Y114C, S116G, Q117P
notes: as for B1
B17: the binding result is “binds”.

B18: mgp130_VHH33 (VHH)
VHH: B2 VHH with L79M, T101A, Y112W, N113H, Y114V, S116G
notes: as for B1
Consider B18, for which the binding result is given as “binds”.

B19: mgp130_VHH7 (VHH)
VHH: B2 VHH with G16E, G56A, S57G, A61T, E111G, Y114V
notes: as for B1
For B19, the binding result is “binds”.

B20: mgp130_VHH22 (VHH)
VHH: QVQLQESGGGLVQPGGSLRLSCAVSGFTFSNYAMKWVRQAPGKGLEWVSSISGGGGATYYADSVKGRFTISRDNTKNTLYLQMNSLKTEDTAVYYCAAQNLDYRGQGTQVTVSS
notes: as for B1
Consider B20, for which the binding result was “binds”.

B21: mgp130_VHH48 (VHH)
VHH: B20 VHH with G10A, V24A, N31Y, K76N, N77D
notes: as for B1
Take B21: the binding result is given as “binds”.

B22: mgp130_VHH23 (VHH)
VHH: QVQLQESGGGLVQPGGSLRLSCTASGFTFNSAHMKWERQPPGKGLEWVSFITPGGASTGYADSVKGRFTISRDNAKNTLYLQMNNLKTEDTAVYYCATGGLRGQGTQVTVSS
notes: as for B1
As to B22, the binding result is recorded as “binds”.

B23: mgp130_VHH44 (VHH)
VHH: B22 VHH with M34L, P53N, N74D
notes: as for B1
As to B23, the binding result is “binds”.

B24: mgp130_VHH1 (VHH)
VHH: QVQLQESGGGSVQAGGSLRLSCVISGFTYRQTFMGWFRQVLGKEREGVAAISTGGGSTVYADSVKGRFTISQDSSKNTVYLEMNGLKLEDTGMYYCAASTVITSVSINRGLYQYWGQGTQVTVSS
notes: as for B1
As to B24, the binding result is “binds”.

B25: mgp130_VHH32 (VHH)
VHH: B24 VHH with L20V, I24V, L41P, G110N
notes: as for B1
In the case of B25, the binding result was “binds”.

B26: mgp130_VHH9 (VHH)
VHH: B24 VHH with V23G, Q31P, T58S, I70V
notes: as for B1
With B26, the binding result is on record as “binds”.

B27: mgp130_VHH5 (VHH)
VHH: B24 VHH with L41V, V59I, N77D, V105E, G110N
notes: as for B1
Take B27: the binding result was “binds”.

B28: mgp130_VHH37 (VHH)
VHH: B24 VHH with S11P, L41P, V105E
notes: as for B1
For the molecule B28, the binding result is given as “binds”.

B29: mgp130_VHH2 (VHH)
VHH: B24 VHH with V23A, L41V, N77D, V105E, G110N
notes: as for B1
With B29, the binding result was “binds”.

B30: mgp130_VHH25 (VHH)
VHH: B24 VHH with R30K, L41P, S106T
notes: as for B1
As to B30, the binding result is “binds”.

B31: mgp130_VHH49 (VHH)
VHH: B24 VHH with R30K, L41P, D73E, S106T
notes: as for B1
Take B31: the binding result is on record as “binds”.

B32: mgp130_VHH41 (VHH)
VHH: B24 VHH with V23G, Q31P, N77D, V105E, G110N
notes: as for B1
As to B32, the binding result was “binds”.

B33: mgp130_VHH26 (VHH)
VHH: B24 VHH with T28V, R30K, L41P
notes: as for B1
As to B33, the binding result was “binds”.

B34: mgp130_VHH19 (VHH)
VHH: B24 VHH with V23G, Q31P, T58S, I70V, G110A
notes: as for B1
As to B34, the binding result is listed as “binds”.

B35: mgp130_VHH36 (VHH)
VHH: B24 VHH with L41V, T58M, N77D, V105E, G110N
notes: as for B1
As for B35, the binding result is on record as “binds”.

B36: mgp130_VHH45 (VHH)
VHH: B24 VHH with L20V, L41P, V59I, D62N
notes: as for B1
B36: the binding result is recorded as “binds”.

B37: mgp130_VHH39 (VHH)
VHH: B24 VHH with F27L, R30K, L41P, S74N, G110Y, Y114W
notes: as for B1
B37: the binding result was “binds”.

B38: mgp130_VHH47 (VHH)
VHH: B24 VHH with R30K, L41P, S57N, S106T, I107V
notes: as for B1
In the case of B38, the binding result is on record as “binds”.

B39: mgp130_VHH31 (VHH)
VHH: B24 VHH with L41V, N77D, V105E, G110N
notes: as for B1
For the molecule B39, the binding result is “binds”.

B40: mgp130_VHH14 (VHH)
VHH: B24 VHH with R30K, L41P
notes: as for B1
Turning to B40, the binding result is on record as “binds”.

B41: mgp130_VHH21 (VHH)
VHH: B24 VHH with L20V, V23Q, L41P, V105P, G110N
notes: as for B1
With B41, the binding result is recorded as “binds”.

B42: mgp130_VHH24 (VHH)
VHH: B24 VHH with Q31P, S52T, V59L, S99T, G110N
notes: as for B1
Turning to B42, the binding result was “binds”.

B43: mgp130_VHH15 (VHH)
VHH: B24 VHH with L41V, N77D, V105E, N108Y, G110N
notes: as for B1
As to B43, the binding result is on record as “binds”.

B44: mgp130_VHH8 (VHH)
VHH: B24 VHH with Q31P, S52T, S99T, G110N
notes: as for B1
On to B44, for which the binding result is “binds”.

B45: mgp130_VHH27 (VHH)
VHH: B24 VHH with L20V, L41P
notes: as for B1
As for B45, the binding result is reported as “binds”.

These data come from US20260176365A1 (SYNTHEKINE, published 2026).
